{"source": "patent US20090285813A1", "molecular_target": "human CD3 (human) (UniProt P07766)", "sequence (P07766 23-207)": "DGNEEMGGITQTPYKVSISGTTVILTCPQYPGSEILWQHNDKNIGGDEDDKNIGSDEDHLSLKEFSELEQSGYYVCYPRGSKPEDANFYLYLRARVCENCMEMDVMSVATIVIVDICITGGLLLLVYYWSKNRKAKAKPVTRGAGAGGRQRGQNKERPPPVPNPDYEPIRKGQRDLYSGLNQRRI", "test": "cell-based or functional assay", "data": [{"substance": "Irrelevant human IgG1 (EMD Biosciences Cat. 400120) (antibody)", "values": [{"measurement": "Apo-One Apoptosis Assay, 12.5 ng/ml", "result": 250}, {"measurement": "Apo-One Apoptosis Assay, 25 ng/ml", "result": 259}, {"measurement": "Apo-One Apoptosis Assay, 50 ng/ml", "result": 234}]}]}
